{"source": "patent US20150368316A1", "about": "(ALBERT EINSTEIN COLLEGE OF MEDICINE OF YESHIVA UNIVERSITY, published 2015)", "key": {"[1]": {"target": "human PD-L1 on mature human monocyte-derived dendritic cells (human) (UniProt Q9NZQ7)", "sequence (Q9NZQ7 19-290)": "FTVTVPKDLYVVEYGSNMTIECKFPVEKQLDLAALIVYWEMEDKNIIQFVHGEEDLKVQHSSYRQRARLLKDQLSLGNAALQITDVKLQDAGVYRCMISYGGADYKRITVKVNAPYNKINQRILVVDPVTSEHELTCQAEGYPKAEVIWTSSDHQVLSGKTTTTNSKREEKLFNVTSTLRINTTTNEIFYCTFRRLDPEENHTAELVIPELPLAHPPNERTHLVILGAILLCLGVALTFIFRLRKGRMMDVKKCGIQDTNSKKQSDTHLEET", "assay": "flow cytometry, Kd estimated from MFI of Ig fusion protein binding to TNF-α-matured human monocyte-derived dendritic cells; the cells express both PD-L1 and PD-L2, so the value is an apparent avidity not resolved between the two ligands [panel B, table]"}, "[2]": {"target": "human PD-L2 on mature human monocyte-derived dendritic cells (human) (UniProt Q9BQ51)", "sequence (Q9BQ51 20-273)": "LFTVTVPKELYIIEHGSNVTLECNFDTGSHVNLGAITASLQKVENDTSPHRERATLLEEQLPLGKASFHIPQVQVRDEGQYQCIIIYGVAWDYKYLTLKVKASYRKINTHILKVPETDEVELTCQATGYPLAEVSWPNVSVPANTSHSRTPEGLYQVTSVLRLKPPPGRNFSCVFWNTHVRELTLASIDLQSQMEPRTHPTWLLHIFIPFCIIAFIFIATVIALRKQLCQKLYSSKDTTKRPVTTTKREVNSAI", "assay": "flow cytometry, Kd estimated from MFI of Ig fusion protein binding to TNF-α-matured human monocyte-derived dendritic cells; the cells express both PD-L1 and PD-L2, so the value is an apparent avidity not resolved between the two ligands [panel B, table]"}}}
{"substance": "PD-1 Ig (Fc fusion)", "values": [{"measurement": "Kd", "setting": "[1]", "result": 325, "unit": "nM"}, {"measurement": "Kd", "setting": "[2]", "result": 325, "unit": "nM"}]}
